Assay results as given in patent US20250218531A1 (ABSCI, published 2025).
Values joined by “and” are separate entries in the source; they are usually repeats but may differ in a detail not shown here. Identical values can stand only once.

The binders below were run against human epidermal growth factor receptor 2 (HER2) extracellular domain (human, UniProt P04626 23-629) (assay: SPR).

Binder	Kd	log(KD (M))
Trastuzumab HCDR3 variant ARDGHYFTYDY (Fab, V domains shown) VH: EVQLVESGGGLVQPGGSLRLSCAASGFNIKDTYIHWVRQAPGKGLEWVARIYPTNGYTRYADSVKGRFTISADTSKNTAYLQMNSLRAEDTAVYYCARDGHYFTYDYWGQGTLVTVSS VL: not shown	45.1 nM	-7.35 log(M)
Trastuzumab HCDR3 variant AFPWAGHYMER (Fab, V domains shown) VH: EVQLVESGGGLVQPGGSLRLSCAASGFNIKDTYIHWVRQAPGKGLEWVARIYPTNGYTRYADSVKGRFTISADTSKNTAYLQMNSLRAEDTAVYYCAFPWAGHYMERWGQGTLVTVSS VL: not shown	95 nM	-7.02 log(M)
Trastuzumab HCDR3 variant AKYVLVGSYGV (Fab, V domains shown) VH: EVQLVESGGGLVQPGGSLRLSCAASGFNIKDTYIHWVRQAPGKGLEWVARIYPTNGYTRYADSVKGRFTISADTSKNTAYLQMNSLRAEDTAVYYCAKYVLVGSYGVWGQGTLVTVSS VL: not shown	50.2 nM and 50.1 nM	-7.3 log(M)
Trastuzumab HCDR3 variant ASYAGYSPFDY (Fab, V domains shown) VH: EVQLVESGGGLVQPGGSLRLSCAASGFNIKDTYIHWVRQAPGKGLEWVARIYPTNGYTRYADSVKGRFTISADTSKNTAYLQMNSLRAEDTAVYYCASYAGYSPFDYWGQGTLVTVSS VL: not shown	202 nM	-6.7 log(M)
Trastuzumab HCDR3 variant ATGYSYLRFYD (Fab, V domains shown) VH: EVQLVESGGGLVQPGGSLRLSCAASGFNIKDTYIHWVRQAPGKGLEWVARIYPTNGYTRYADSVKGRFTISADTSKNTAYLQMNSLRAEDTAVYYCATGYSYLRFYDWGQGTLVTVSS VL: not shown	164 nM	-6.79 log(M)
Trastuzumab HCDR3 variant AADGYRGTYSF (Fab, V domains shown) VH: EVQLVESGGGLVQPGGSLRLSCAASGFNIKDTYIHWVRQAPGKGLEWVARIYPTNGYTRYADSVKGRFTISADTSKNTAYLQMNSLRAEDTAVYYCAADGYRGTYSFWGQGTLVTVSS VL: not shown	79.2 nM	-7.1 log(M)
Trastuzumab HCDR3 variant AKYVASGYSLA (Fab, V domains shown) VH: EVQLVESGGGLVQPGGSLRLSCAASGFNIKDTYIHWVRQAPGKGLEWVARIYPTNGYTRYADSVKGRFTISADTSKNTAYLQMNSLRAEDTAVYYCAKYVASGYSLAWGQGTLVTVSS VL: not shown	109 nM	-6.96 log(M)
Trastuzumab HCDR3 variant ARFDLVGAFDY (Fab, V domains shown) VH: EVQLVESGGGLVQPGGSLRLSCAASGFNIKDTYIHWVRQAPGKGLEWVARIYPTNGYTRYADSVKGRFTISADTSKNTAYLQMNSLRAEDTAVYYCARFDLVGAFDYWGQGTLVTVSS VL: not shown	151 nM	-6.82 log(M)
Trastuzumab HCDR3 variant ARYSYYRYYFE (Fab, V domains shown) VH: EVQLVESGGGLVQPGGSLRLSCAASGFNIKDTYIHWVRQAPGKGLEWVARIYPTNGYTRYADSVKGRFTISADTSKNTAYLQMNSLRAEDTAVYYCARYSYYRYYFEWGQGTLVTVSS VL: not shown	74.6 nM	-7.13 log(M)
Trastuzumab HCDR3 variant AAWYSTYYFDY (Fab, V domains shown) VH: EVQLVESGGGLVQPGGSLRLSCAASGFNIKDTYIHWVRQAPGKGLEWVARIYPTNGYTRYADSVKGRFTISADTSKNTAYLQMNSLRAEDTAVYYCAAWYSTYYFDYWGQGTLVTVSS VL: not shown	49.4 nM	-7.31 log(M)
Trastuzumab HCDR3 variant AINLRGYWMDN (Fab, V domains shown) VH: EVQLVESGGGLVQPGGSLRLSCAASGFNIKDTYIHWVRQAPGKGLEWVARIYPTNGYTRYADSVKGRFTISADTSKNTAYLQMNSLRAEDTAVYYCAINLRGYWMDNWGQGTLVTVSS VL: not shown	41.5 nM	-7.38 log(M)
Trastuzumab HCDR3 variant ATGSGGGGFSYGY (Fab, V domains shown) VH: EVQLVESGGGLVQPGGSLRLSCAASGFNIKDTYIHWVRQAPGKGLEWVARIYPTNGYTRYADSVKGRFTISADTSKNTAYLQMNSLRAEDTAVYYCATGSGGGGFSYGYWGQGTLVTVSS VL: not shown	182 nM	-6.74 log(M)
Trastuzumab HCDR3 variant VRYPEVYGYYFDY (Fab, V domains shown) VH: EVQLVESGGGLVQPGGSLRLSCAASGFNIKDTYIHWVRQAPGKGLEWVARIYPTNGYTRYADSVKGRFTISADTSKNTAYLQMNSLRAEDTAVYYCVRYPEVYGYYFDYWGQGTLVTVSS VL: not shown	36.3 nM	-7.44 log(M)
Trastuzumab HCDR3 variant SRYYDYNYYFMDY (Fab, V domains shown) VH: EVQLVESGGGLVQPGGSLRLSCAASGFNIKDTYIHWVRQAPGKGLEWVARIYPTNGYTRYADSVKGRFTISADTSKNTAYLQMNSLRAEDTAVYYCSRYYDYNYYFMDYWGQGTLVTVSS VL: not shown	141 nM	-6.85 log(M)
Trastuzumab HCDR3 variant TRYRGAHGYYFDY (Fab, V domains shown) VH: EVQLVESGGGLVQPGGSLRLSCAASGFNIKDTYIHWVRQAPGKGLEWVARIYPTNGYTRYADSVKGRFTISADTSKNTAYLQMNSLRAEDTAVYYCTRYRGAHGYYFDYWGQGTLVTVSS VL: not shown	35.5 nM	-7.45 log(M)
Trastuzumab HCDR3 variant AVYGPYGGFSYDS (Fab, V domains shown) VH: EVQLVESGGGLVQPGGSLRLSCAASGFNIKDTYIHWVRQAPGKGLEWVARIYPTNGYTRYADSVKGRFTISADTSKNTAYLQMNSLRAEDTAVYYCAVYGPYGGFSYDSWGQGTLVTVSS VL: not shown	70.7 nM	-7.15 log(M)
Trastuzumab HCDR3 variant TRWRWGYGYYFDF (Fab, V domains shown) VH: EVQLVESGGGLVQPGGSLRLSCAASGFNIKDTYIHWVRQAPGKGLEWVARIYPTNGYTRYADSVKGRFTISADTSKNTAYLQMNSLRAEDTAVYYCTRWRWGYGYYFDFWGQGTLVTVSS VL: not shown	78.1 nM	-7.11 log(M)
Trastuzumab HCDR3 variant TRYYGGYGYYFDY (Fab, V domains shown) VH: EVQLVESGGGLVQPGGSLRLSCAASGFNIKDTYIHWVRQAPGKGLEWVARIYPTNGYTRYADSVKGRFTISADTSKNTAYLQMNSLRAEDTAVYYCTRYYGGYGYYFDYWGQGTLVTVSS VL: not shown	41.6 nM	-7.38 log(M)
Trastuzumab HCDR3 variant ATGYGYLLYSDHD (Fab, V domains shown) VH: EVQLVESGGGLVQPGGSLRLSCAASGFNIKDTYIHWVRQAPGKGLEWVARIYPTNGYTRYADSVKGRFTISADTSKNTAYLQMNSLRAEDTAVYYCATGYGYLLYSDHDWGQGTLVTVSS VL: not shown	171 nM	-6.77 log(M)
Trastuzumab HCDR3 variant SYPDFGYYVYFAY (Fab, V domains shown) VH: EVQLVESGGGLVQPGGSLRLSCAASGFNIKDTYIHWVRQAPGKGLEWVARIYPTNGYTRYADSVKGRFTISADTSKNTAYLQMNSLRAEDTAVYYCSYPDFGYYVYFAYWGQGTLVTVSS VL: not shown	36.8 nM	-7.43 log(M)
Trastuzumab HCDR3 variant SRYGRGVYYYFDY (Fab, V domains shown) VH: EVQLVESGGGLVQPGGSLRLSCAASGFNIKDTYIHWVRQAPGKGLEWVARIYPTNGYTRYADSVKGRFTISADTSKNTAYLQMNSLRAEDTAVYYCSRYGRGVYYYFDYWGQGTLVTVSS VL: not shown	79.7 nM	-7.1 log(M)
Trastuzumab HCDR3 variant ATSGSVDRYDYVY (Fab, V domains shown) VH: EVQLVESGGGLVQPGGSLRLSCAASGFNIKDTYIHWVRQAPGKGLEWVARIYPTNGYTRYADSVKGRFTISADTSKNTAYLQMNSLRAEDTAVYYCATSGSVDRYDYVYWGQGTLVTVSS VL: not shown	155 nM	-6.81 log(M)
Trastuzumab HCDR3 variant TRYYGDGYYDFDY (Fab, V domains shown) VH: EVQLVESGGGLVQPGGSLRLSCAASGFNIKDTYIHWVRQAPGKGLEWVARIYPTNGYTRYADSVKGRFTISADTSKNTAYLQMNSLRAEDTAVYYCTRYYGDGYYDFDYWGQGTLVTVSS VL: not shown	29.2 nM	-7.53 log(M)
